# Experimental data taken from the RNAGym collection of RNA variant scans (doi:10.1073/pnas.2313332121).
# Fewer inactive variants are shown than the library holds.
# B1: TPR 5TU (parent)
# chain: GGAUCUUCUCGAUCUAACAAAAAAGACAAAUCUGCCACAAAGCUUGAGAGCAUCUUCGGAUGCAGAGGCGGCAGCCUUCGGUGGCGCGAUAGCGCCAACGUUCUCAACUAUGACACGCAAAACGCGUGCUCCGUUGAAUGGAGUUUAUCAUG
# Variants of: B1
# Assay: polymerase ribozyme fitness, log enrichment relative to wild type (log ratio); higher = more active; in vitro selection for triplet polymerase activity
# Procedure, shortened: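 Only genotypes with ≥10 input reads and ≥1 read per output were kept after Illumina sequencing of input and output libraries. These libraries were PCR-built, transcribed mutants of each subunit of a heterodimeric triplet polymerase ribozyme, each put through one triplicate in vitro selection round with frozen incubation at −7 °C, gel excision of extended constructs, streptavidin-bead capture and RT-PCR. Fitness is a logarithmic ratio of genotype enrichment to wild-type enrichment, from inverse-variance-weighted replicate averages, with the logarithm in base 2.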
row,Variant,polymerase ribozyme fitness (log ratio)
1,G71A G92U,-2.6
2,A12C U56A G59C C96A U101C,-0.609
3,C8A C76G G86U U109G G141U,≤ -4.2
4,C14A G48C U56A C96A,-3.68
5,C69G G71U G140A,≤ -4.2
6,A40C G83U A119G,-1.55
7,C5U A21G U139C U146A,-3.99
8,C8G A22U C35G C69G G70C G92A,≤ -4.2
9,U56G C57U G62U A66G C75U G83U,≤ -4.2
10,A40G A60C C105G A138C A147U,≤ -4.2
11,G94A A137U,-3.87
12,A20U C51U C79A C93A A97U U148G,≤ -4.2
13,G140C G143U,-3.7
14,U55A A106G A113U G136C,≤ -4.2
15,U4C C10G A17U A22G C36U U78A G92A C118U,≤ -4.2
16,A37C G84U U127G G128A U134G,≤ -4.2
17,U55A A66U A98G A122U A150C,≤ -4.2
18,A40U G86U,-1.77
19,C8U C14G C32A C36G G83A G117C,≤ -4.2
20,C85U G136A,0.767
21,C14G G92C,-2.66
22,A52C C93U,-2.33
23,A40C A138G U144G,-3.92
24,A26U G58C A60C G100A A115G,≤ -4.2

row,Variant,polymerase ribozyme fitness (log ratio)
1,U90A A106C G128A,≤ -4.2
2,A40C A52U U111C A119U U139G U151G,≤ -4.2
3,U33G C54A C96A A98U,-4.06
4,C35A G80C G88A C103U A110G C149A,≤ -4.2
5,C57G U61A G88A U104G,-4.19
6,C5G C76U G84U A113U A122U,-4
7,A24U C57A G83U A97U U146A,-1.51
8,C8A C38U C57U C79G C96G,≤ -4.2
9,U15C G88A,-3.6
10,U55A A97G C116A,1.12
11,A20C A40U C95U,-0.74
12,U31A C116U,-0.00779
13,C14A C54G G62A G86U U101G G141U,≤ -4.2
14,A24U A39U A89C,-4.16
15,U13C U55A C85A C125U,-1.98
16,U4C A115G,-1.57
17,A30G A47G G71C C87G U135G,≤ -4.2
18,C10U G25C G46C G88U C95U A97U A142C,≤ -4.2
19,U6A U33A U55G C57U C79G G92A C131U,≤ -4.2
20,U15C A24C C36U A40U C79G C93G G100A C125G U139C,≤ -4.2
21,G11U C96U A119C,-1.07
22,C8U A20G A24C A40C G50C G71C A89C C93U,≤ -4.2
23,C108U G141U,-3.1
24,A16C U31A,-0.733

row,Variant,polymerase ribozyme fitness (log ratio)
1,G84U G88A,-4.15
2,U82C A89C C96U U101G A115C,-1.01
3,A17U A37U C96A C99U A113C U134G G152C,-4.19
4,A22G G84U G88U A89U,≤ -4.2
5,G128A U146G,-4.16
6,A41C G59A C69A G84A A107U A137U,≤ -4.2
7,A37C G84U A120G,-2.19
8,C57A G92C G133A,-4.05
9,A47C A91C C105G A120G G143U,≤ -4.2
10,G42A C54G C95U A107U C118G,≤ -4.2
11,U45A A60C C79U C99U U101G G136U,≤ -4.2
12,U61A U102C U111G A115G C123A U139G,≤ -4.2
13,U9C U31C A41C G48C A52U C93U C95A G140A,≤ -4.2
14,U53G G59C A147C,-0.875
15,A64U C75U C85U G136C,≤ -4.2
16,U82G C85G G92C C114A,≤ -4.2
17,G11U A12U A30U U55A C85U C95U A142U,≤ -4.2
18,C18U A52C G86A C99U U146G,-4.02
19,G48A C75G U78C,≤ -4.2
20,C57G A142C,-0.312
21,A52U A150C,-4.03
22,U55G U82A G84U U102C,-3.21
23,C5G G59A,-0.858
24,C76A C85U U144C,-0.235

row,Variant,polymerase ribozyme fitness (log ratio)
1,A12U C96A,-0.787
2,C32A G50A C57A U82A C99A U101A,≤ -4.2
3,U44G C57U A91U U109C,≤ -4.2
4,C36U U56G U61A,≤ -4.2
5,U53A A60U U77C G80C A91G A142C,≤ -4.2
6,A30C C79U A119U C129G U134G A150G,-4.04
7,A3U U56A G88C U145G,-3.98
8,U53A G100A,≤ -4.2
9,G59C G71U G88U A98U C116G G124U,≤ -4.2
10,C43U,-4.01
11,U61A U101A,-1.08
12,A41G A60U A121C U144A,-1.13
13,A40C A52U C57U G92C C95U C105U A106C U109C A138G,≤ -4.2
14,G50U C76A G126U U148G,≤ -4.2
15,C51U G94A C96U G126C,-1.72
16,G71U G80C C93U A97U C132A,≤ -4.2
17,G50U C57U A110G G140A,≤ -4.2
18,A52G C131A,-1.46
19,A37U C75G C87G C93U U101C,≤ -4.2
20,G59U C95U G133U,≤ -4.2
21,A16G U53A U56G A89C C96U U111C,≤ -4.2
22,C36G C43U C85U A115C C116A,-4.15
23,A37G A47G G92C,-3.05
24,A22G C35A A107C,≤ -4.2

row,Variant,polymerase ribozyme fitness (log ratio)
1,A29U C38U A64U G88A A97U C116U,≤ -4.2
2,C10G A22C C35U G86U A115G G124A,≤ -4.2
3,G11C A20G A47C,-2.54
4,A22C C76A C85A C93U C132A A142U,≤ -4.2
5,C18U A52C U145G,-2.09
6,C87U C125U,-2.13
7,C96U C105G U144A,-1.81
8,C10A A17C C35U G59A A122U U146A,≤ -4.2
9,U15C A49G C116A A138U,-3.99
10,A37G U56G,-1.45
11,G74A A91C A147U U148C,≤ -4.2
12,C95U C116G,0.0419
13,A60C U82A,-1.28
14,G25C G48U U55A C85U A147C,-3.98
15,U44G U56A,-3.19
16,A37U C38A G58C C85G C87G,≤ -4.2
17,G59A C79A U82A C96A,-3.85
18,C36A A49U C63U C79G C87U A106G G133A U144C,≤ -4.2
19,U56A G136U,-2.72
20,C14U A22G A39G G71A C93U G152C,≤ -4.2
21,A40C G48A,-1.28
22,A12U C14A G58C C85A,-3.13
23,C51G G81U C96U,-1.16
24,A24U A98G,0.444

row,Variant,polymerase ribozyme fitness (log ratio)
1,A21U A60G G65C,-3.98
2,G70A U144C,-3.66
3,C8G G11A A19C G50A C69A G70A C93U,≤ -4.2
4,A26G C54G C57U C96U C132U,≤ -4.2
5,A17G G84U,-2
6,G25U G59U C93G C96U U134C,≤ -4.2
7,C76U A89C C118G,-1.8
8,G11U A40U G84A C132A G143C,≤ -4.2
9,C75U C85G C103A A107U U146G A147U A150G,≤ -4.2
10,A40C A89U C96U C114U G128C U145G,≤ -4.2
11,C32U G68A,-3.89
12,C5A A22U A24U C27G A39C C57U A60U C85G,≤ -4.2
13,C43U U45A G86A A115C C118G,≤ -4.2
14,A28G A47U A49C C85A G136C U146G,≤ -4.2
15,G58A C96G,-0.616
16,A3G A12G A52G G84A C116G,-1.71
17,A20G A24U C87U A107G,≤ -4.2
18,C10G A22G C63U G81U G94C A147G U148A,≤ -4.2
19,A39C G70C A97G,≤ -4.2
20,U148C,-1.53
21,A64C G84A G128A,≤ -4.2
22,A60G G88U A97U A107G C114U,≤ -4.2
23,A19U A40C G94A A107U,≤ -4.2
24,C8G G48C,-4.08

row,Variant,polymerase ribozyme fitness (log ratio)
1,C76A C96A A122C C123A,-1.55
2,C10G U53A C54A G80C G84A C96G U104C C108U U145G,≤ -4.2
3,A28C A66G U148A,≤ -4.2
4,A60U G92U A107C,≤ -4.2
5,A21G A52G C87U U90G A106G A107G,≤ -4.2
6,C27A U56G A60U G86U A97G U111G C132A U135G,≤ -4.2
7,U45A A60G A66C G68C C69U,≤ -4.2
8,A52C U148G,≤ -4.2
9,C18A A20C U53C G59U C93G U148C,-4.14
10,U53A U56A C105U,-1.66
11,A3U G68A U77A C85G C149G,≤ -4.2
12,C35A G65A,-3.77
13,U4G G50A C96G U102G C123A,≤ -4.2
14,A3G G11C G34C A41G C87A,-4.04
15,A37G A47C G83U,-4.12
16,C35U C116U,0.17
17,A47G A49G G71A C87U A97U A106G A107C U111G U134C,≤ -4.2
18,C93G G140A,≤ -4.2
19,U7C C8U U45A G68C C87G A91C,≤ -4.2
20,C8U C38U C69A G83A A91C C118U,≤ -4.2
21,A52G U53A C85A U111G,≤ -4.2
22,C93A A98U,-0.828
23,U6G A21U C93U U127G,-3.85
